{
  "source": "patent US20180071407A9",
  "about": "“SYSTEMS AND METHODS FOR INTRA-TARGET MICRODOSING (ITM)” (priority 2013, published 2018)",
  "origin": "cited, not measured here",
  "conditions": "known value used to choose sampling time points; cited from earlier work",
  "data": [
    {"substance": "insulin", "values": [
      {"measurement": "half-life of insulin", "value": "4 to 6", "unit": "min"}
    ]}
  ]
}
